From paper PMC6557989 (2019)

What was measured:
[1] = target: T1, C4b-binding protein (C4BP), human, purified from plasma (human, UniProt P04003 49-597; P20851 18-252, ^125I-labelled in the binding assay on bacteria); experiment: SEC; n = 26 binding sites per C4BP
T1 chain 1: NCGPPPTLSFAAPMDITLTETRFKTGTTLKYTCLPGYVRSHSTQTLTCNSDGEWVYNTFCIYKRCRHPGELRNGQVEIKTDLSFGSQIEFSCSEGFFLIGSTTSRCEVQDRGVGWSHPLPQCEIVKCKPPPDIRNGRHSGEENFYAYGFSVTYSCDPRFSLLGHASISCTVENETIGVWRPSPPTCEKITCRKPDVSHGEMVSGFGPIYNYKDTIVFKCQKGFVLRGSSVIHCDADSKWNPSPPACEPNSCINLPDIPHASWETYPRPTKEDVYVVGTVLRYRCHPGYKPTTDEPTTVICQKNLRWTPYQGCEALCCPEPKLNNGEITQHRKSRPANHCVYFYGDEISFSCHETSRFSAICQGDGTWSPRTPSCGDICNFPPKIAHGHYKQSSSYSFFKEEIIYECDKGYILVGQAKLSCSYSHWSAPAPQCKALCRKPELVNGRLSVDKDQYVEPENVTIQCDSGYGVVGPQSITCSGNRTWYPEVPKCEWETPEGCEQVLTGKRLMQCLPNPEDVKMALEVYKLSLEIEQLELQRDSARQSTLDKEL
T1 chain 2: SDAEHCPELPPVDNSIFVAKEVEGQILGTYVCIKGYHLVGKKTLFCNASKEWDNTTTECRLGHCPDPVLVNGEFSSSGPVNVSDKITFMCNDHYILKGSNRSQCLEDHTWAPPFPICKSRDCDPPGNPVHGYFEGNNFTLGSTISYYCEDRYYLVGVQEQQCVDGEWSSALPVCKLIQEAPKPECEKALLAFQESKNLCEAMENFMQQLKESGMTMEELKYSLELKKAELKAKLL

[2] = target: pooled human IgG (IVIG; Kiovig) (human); experiment: SEC; n = 1.1 binding sites per Protein H

B1: Protein H (natural protein)
chain: EGAKIDWQEEYKKLDEDNAKLVEVVETTSLENEKLKSENEENKKNLDKLSKENQGKLEKLELDYLKKLDHEHKEHQKEQQEQEERQKNQEQLERKYQREVEKRYQEQLQKQQQLETEKQISEASRKSLSRDLEASRAAKKDLEAEHQKLEAEHQKLKEDKQISDASRQGLSRDLEASRAAKKELEANHQKLEAEHQKLKEDKQISDASRQGLSRDLEASRAAKKELEANHQKLEAEAKALKEQLAKQAEELAKLRAGKASDSQTPDTKPGNKAVPGKGQAPQAGTKPNQNKAPMKETKRQLPST
modifications: ^125I-labelled in the plate binding assay; Alexa-488 succinimidyl ester-labelled in thermophoresis; unlabelled elsewhere
B1 showed a Kd [1] of 1300 nM and a Kd [2] of 78 nM.
